# B1: rβhCG: recombinant β subunit expressed in mouse cells (Sigma) (protein, UniProt P0DN86 21-165, looked up)
# Choriogonadotropin subunit …: SKEPLRPRCRPINATLAVEKEGCPVCITVNTTICAGYCPTMTRVLQGVLPALPQVVCNYRDVRFESIRLPGCPRGVNPVVSYAVALSCQCALCRRSTTDCGGPKDHPLTCDDPRFQDSSSSKAPPPSLPSPSRLPGPSDTPILPQ
# B2: βhCG: purified native β subunit of hCG (Sigma) (protein, UniProt P0DN86 21-165, looked up)
# Choriogonadotropin subunit …: B1 Choriogonadotropin subunit …
# modifications: native beta subunit only
# Experiments:
# HIV-1 = conditions: for HIV in vitro Inhibition: inhibition of HIV-1 replication in vitro (HIV-1 strains and HIV-1 primary isolates)
# Description: To prepare HIV infected cells for the in vitro assay of hCG preparations and β-hCG peptides and derivatives, primary PBMCs, macrophages, and CD4^+ T cells isolated from peripheral blood and the H9 human T cell line, were acutely or chronically infected with 8 different HIV-1 strains: 4 cell line adapted viruses, namely the macrophage tropic Ba-L strain (Gartner et al., 1986, Science 233:215-219) and the CD4^+ T cell tropic MN, RF, and IIIB strains (10^5 TCID50/ml) (Popovic et al., 1984, Science […]; Gallo et al.; 1984, Science 224:500-503); 2 isolates, Ju1083 and G3, from Nigerian AIDS patients passed once in a CD4^+ T cell line (Sub-T1); and 2 primary (“clinical”) isolates from AIDS patients from Trinidad which were never passed in any cell line and were used at a titer of 7.5×10^4TCID50/ml. In all experiments; HIV1 (10^5 TCID50/ml) was added to the cells(10^6 cells/ml) for a 2 hour incubation after which the virus infected cells were washed with 10 ml phosphate buffered saline (PBS) three times to eliminate extra cellular virus. The test inhibitor, i.e. the hCG or β-hCG peptide preparation was then added and the cells were incubated with the test inhibiter for 9 to 10 days with serial sampling. Cultures were assayed for p24 antigen on days 3 to 10.
# Peptides of the α- and β-subunits (0.05 to 50 nmoles/ml), native α chain preparation, and various crude preparations of the native hCG heterodimer (0.01 to 1,000 IU) and the native β-hCG subunit (100 to 1,000 μg) were tested for effects on HIV-1 replication in acutely infected cells-by measuring change in viral antigen levels in response to the above noted preparations (FIGS. 4A-D and Table 3).
# The fractions were then tested for anti-HIV, anti-KS and pro-hematopoietic activities in vitro. To assay for inhibition of HIV-1 replication in vitro, the HIV-1 […] viral strain was used to infect PBMCs and PM-1 cells (derived from the HUT-78 T-cell lymphoma cell line) at 10^3 TCID50/ml as described in detail herein.
# [1] = system: HIV RNA and protein expression; assay: HIV RNA and protein expression in HIV-1 transgenic mice; type: in vivo; conditions: inhibition of HIV RNA and protein expression in HIV-1 transgenic mice
# Description: (§1) The HIV-1 transgenic mice used for this study contain 7.4 kb of foreign DNA, including 5.1 kb of the HIV-1 proviral genome deleted in the gag and pol genes and 2.3 kb of vector (Dickie et al., 1991, Virology 185:109-119). […] In addition, these mice develop severe hyperkeratotic skin lesions with marked expression of gp 120 and nef genes (Kopp et al., 1993, AIDS Res. Hum. Retroviruses 9:267-275; Vasli et al., 1994, AIDS Res. Hum. Retroviruses 10:1241-1250).
# Heterozygous transgenic mothers were treated with the hCG preparation subcutaneously twice weekly. Pups received hCG via the mother's milk.
# Gene expression was assayed in total RNA extracted from the skin of Tg26 mice with RNAzol. One microgram of RNA was reverse transcribed into cDNA using random hexamer primers and […] reverse transcriptase (Life Technologies, MD) in a final volume of 30 μl. One tenth of the cDNA reactions were used for PCR amplification of various HIV gene sequences (env, tat, rev, nef and vif). In addition, glyceraldehyde 3-phosphate dehydrogenase (GAPHD) mRNA was amplified for each sample for normalization. […] Detection was performed by chemiluminescence (Amersham) and relative mRNA levels determined by densitometry after normalization with GAPDH mRNA levels. […]
# KS Y-1 and KS-SLK cells = assay: Kaposi's Sarcoma clonogenic assay in cultured cells; type: cell-based, human; conditions: for KS in vitro: inhibition of Kaposi's Sarcoma cell growth in vitro in cultured cells
# Protocol: Briefly, the KS Y-1 cells were obtained from mononuclear cells isolated from pleural effusion of an AIDS patient with KS in the lungs. After the depletion of T lymphocytes, monocytes/macrophages and fibroblasts using monoclonal antibodies against CD2, CD3, CD4, CD8, CD10 and CD14 membrane antigens and baby rabbit complement, the cells were cultured in the absence of exogenous growth factors to select for transformed cells. […] Clonogenic assays were performed by seeding the KS Y-1 or KS-SLK cells in methylcellulose (0.8%, v/v), incubating the cells for 10 days in the presence or absence of the hCC, β-hCG or β-hCG peptide preparations and then counting the number of well-formed colonies of triplicate wells formed after seeding with 5×10^4 cells.
# To assay for activity against Kaposi's sarcoma cell growth in vitro, the clonogenic assay described herein was used with the KS Y-1 and KS-SLK cultured Kaposi's Sarcoma cell lines,.
# [2] = system: Kaposi's Sarcoma induced in mice; assay: Kaposi's Sarcoma tumors induced in mice by KS Y-1 cells; type: in vivo; conditions: inhibition of Kaposi's Sarcoma induced in mice
# Protocol: The effects of the peptides on KS tumor cells were also evaluated in vivo in the KS mouse model. To induce KS tumors in the mice, 1×10^6/ml KS Y-1 cells in 50 μl PBS or saline were injected subcutaneously into immunodeficient mice (beige-XID-BNX mice). […] Methods for detection of apoptosis (from tissue biopsies) were used, as described in Lunardi-Iskandar et al.(1995, Nature 375:64-68). Briefly, the samples were stained in situ for the presence of cells with DNA fragmentation. Tissue slides from formalin-fixed tumors were treated with terminal deoxynucleotide transferase for extension of DNA ends (hydroxyl 3′) and incorporation of digoxigenin-11-dUTP according to the manufacturer's instructions (Oncor, Gaithersburg, Md.). Anti-digoxigenin antibody conjugated with the enzyme peroxidase allowed detection of apoptotic cells, which stain brown, whereas viable cells stain blue.
# Certain fractions were tested for activity in reducing Kaposi's Sarcoma lesions in the Kaposi's Sarcoma mouse model as described herein. In this assay, starting one week after injection of the KS Y-1 cells to induce Kaposi's sarcoma formation, the mice were injected subcutaneously with 100 IU hCG. […] After one week of the week of treatment with the hCG fractions, the KS lesions were examined for cell apoptosis and regression as described herein. […]
# [3] = system: hematopoietic progenitor cells; assay: Hematopoietic progenitor clonogenic assays (CFU-GEMM, BFU-e, CFU-GM); type: cell-based, human; conditions: for Pro-hematopoiesis in vitro Enhancement: relative increase of hematopoietic colony cell number, hCG preparations 200 IU/ml, subunits and peptides 100 μg/ml
# Protocol: The effect of hCG preparations and peptides was assayed on hematopoietic progenitor cells in vitro: Hematopoietic progenitor cells (2×10^5 cell/ml) were isolated from normal bone marrow and cord blood and seeded in methylcellulose. […] The hCG preparations were administered at 200 IU/ml and the β- and α-subunits and peptides were administered at 100 μg/ml. The native commercial preparation of hCG (APL™, Wyeth Ayerst) was pre-tested for anti-HIV and anti-KS activities. Aggregates containing more than 50 cells after 10 days of culture were counted as colonies.
# HIV-1 transgenic mice = assay: Survival, growth and weight of HIV-1 transgenic mouse pups; type: in vivo; conditions: administered first 5 days after birth through mothers milk
# Protocol: as §1
# Finally, certain fractions were tested for their ability to increase survival, promote weight gain and reduce HIV-1 gene expression in HIV-1 transgenic mice as described herein.
# HIV-I transgenic pups administered hCG and hCG-related preparations for the first 5 days after birth through the mothers milk were monitored for survival at 10 days after birth.
Molecule,inhibition of HIV-1 infection/replication in vitro (in words) (HIV-1),HIV in vitro Inhibition (HIV-1),inhibition of HIV RNA and protein expression [1],KS in vitro (KS Y-1 and KS-SLK cells),KS in vivo [2],Pro-hematopoiesis in vitro Enhancement [3],survival at 10 days after birth (HIV-1 transgenic mice),inhibition of KS cell growth in clonogenic assays (in words) (KS Y-1 and KS-SLK cells; KS Y-1 and KS SLK),promotion of hematopoiesis (in words) ([3]; listed as native β-hCG),promotion of hematopoiesis (in words) ([3]; listed as partially purified native β-chain)
B1,not to be active,− (“−” represents less than 10% effect),− (“−” represents less than 10% effect),− (“−” represents less than 10% effect),− (“−” represents less than 10% effect),− (“−” represents less than 10% effect),failed to promote survival,–,–,–
B2,active,++ (“++” represents greater than 40% effect),++ (“++” represents greater than 40% effect),++ (“++” represents greater than 40% effect),++ (“++” represents greater than 40% effect),++ (“++” represents greater than 40% effect),promote survival,moderately well,pro-hematopoietic activity,directly promoted

# — patent US6699834B1, “Method for treating cancer” (University of Maryland Biotechnology Institute, priority 1997, dated 2004)
